{
  "source": "paper PMC10412584",
  "about": "“Molecular reshaping of phage-displayed Interleukin-2 at beta chain receptor interface to obtain potent super-agonists with improved developability profiles” (Communications Biology, 2023)",
  "binders": {"B1": {"name": "recombinant fusion protein comprising human IL-2R beta subunit extracellular domain and mouse IgG2a Fc (Fc fusion)", "chain": "AVNGTSQFTCFYNSRANISCVWSQDGALQDTSCQVHAWPDRRRWNQTCELLPVSQASWACNLILGAPDSQKLTTVDIVTLRVLCREGVRWRVMAIQDFKPFENLRLMAPISLQVVHVETHRCNISWEISQASHYFERHLEFEARTLSPGHTWEEAPLLTLKQKQEWICLETLTPDTQYEFQVRVKPLQGEFTTWSPWSQPLAFRTKPAALGKDT"}, "B2": {"name": "phage-displayed hIL-2 variant 2B (S2 library) (ligand, human, UniProt P60568 23-153, looked up)", "chain": "TSSSTKKTQLQLEHLLLDLQMILNGINNYKNPKLTRMLTFKFYMPKKATELKHLQCLEEELKPLEEVLNLAQSKNFHVPPEDLIANINVLVLELKGSETTFMCEYADETATIVEFLNRWITFCQSIISTLT", "notes": "No K35E on the phage"}},
  "key": {"[1]": {"molecular_target": "T1, 80VPPEDLIE87 + I92L(K35E)/Fc (human, UniProt P60568 21-153, K35E | L80V (from the name 80VPPEDLIE87) | R81P (from the name 80VPPEDLIE87) | …)", "experiment": "SPR"}, "[2]": {"molecular_target": "T2, 80VPPEDLIA87 + I92L(K35E)/Fc (human, UniProt P60568 21-153, K35E | L80V (from the name 80VPPEDLIA87) | R81P (from the name 80VPPEDLIA87) | …)", "experiment": "SPR"}, "[3]": {"molecular_target": "T3, 80FDPADVVE87 + I92L(K35E)/Fc (human, UniProt P60568 21-153, K35E | L80F | R81D | R83 was replaced by either Ala or Glu (here Ala) | L85V | …)", "experiment": "SPR"}, "[4]": {"molecular_target": "T4, 80FDPEDVVE87 + I92L(K35E)/Fc (human, UniProt P60568 21-153, K35E | L80F | R81D | R83 was replaced by either Ala or Glu (here Glu) | L85V | …)", "experiment": "SPR"}, "H9(K35E)/Fc [5]": {"molecular_target": "T5, H9(K35E)/Fc (human, UniProt P60568 21-153, K35E | L80F | R81D | L85V | I86V | I92F)", "experiment": "SPR"}, "IL-2(K35E)/Fc [6]": {"molecular_target": "T6, IL-2(K35E)/Fc (human, UniProt P60568 21-153, K35E)", "experiment": "SPR"}, "[7]": {"molecular_target": "T7, 80FDPHDVVE87 + I92L + V93L(K35E)/Fc (human, UniProt P60568 21-153, K35E | L80F | R81D | R83H (from the name 80FDPHDVVE87) | L85V | I86V | S87E | …)", "experiment": "SPR"}, "[8]": {"molecular_target": "T1, 80VPPEDLIE87 + I92L(K35E)/Fc", "experiment": "SPR", "remark": "listed apart in the source"}, "[9]": {"molecular_target": "T2, 80VPPEDLIA87 + I92L(K35E)/Fc", "experiment": "SPR", "remark": "listed apart in the source"}, "[10]": {"molecular_target": "T3, 80FDPADVVE87 + I92L(K35E)/Fc", "experiment": "SPR", "remark": "listed apart in the source"}, "[11]": {"molecular_target": "T4, 80FDPEDVVE87 + I92L(K35E)/Fc", "experiment": "SPR", "remark": "listed apart in the source"}, "H9(K35E)/Fc [12]": {"molecular_target": "T5, H9(K35E)/Fc", "experiment": "SPR", "remark": "listed apart in the source"}, "IL-2(K35E)/Fc [13]": {"molecular_target": "T6, IL-2(K35E)/Fc", "experiment": "SPR", "remark": "listed apart in the source"}, "[14]": {"molecular_target": "T7, 80FDPHDVVE87 + I92L + V93L(K35E)/Fc", "experiment": "SPR", "remark": "listed apart in the source"}, "[15]": {"molecular_target": "T8, H9(K35E)/Fc in which F92 was replaced by the phage-selected Leu (human, UniProt P60568 21-153, K35E | L80F | R81D | L85V | I86V | I92L)", "experiment": "SPR"}, "H9(K35E)/Fc [16]": {"molecular_target": "T5, H9(K35E)/Fc", "experiment": "SPR", "remark": "listed apart in the source"}, "[17]": {"molecular_target": "T9, fusion protein containing I92L-hIL-2 (K35E, human IgG1 Fc) (human, UniProt P60568 21-153, K35E | I92L)", "experiment": "SPR"}, "IL-2(K35E)/Fc [18]": {"molecular_target": "T6, IL-2(K35E)/Fc", "experiment": "SPR", "remark": "listed apart in the source"}, "[19]": {"molecular_target": "T10, H9(K35E)/Fc in which F92 was replaced by the original Ile (human, UniProt P60568 21-153, K35E | L80F | R81D | L85V | I86V)", "experiment": "SPR"}, "[20]": {"molecular_target": "T8, H9(K35E)/Fc in which F92 was replaced …", "experiment": "SPR", "remark": "listed apart in the source"}, "H9(K35E)/Fc [21]": {"molecular_target": "T5, H9(K35E)/Fc", "experiment": "SPR", "remark": "listed apart in the source"}, "[22]": {"molecular_target": "T9, fusion protein containing I92L-hIL-2 …", "experiment": "SPR", "remark": "listed apart in the source"}, "IL-2(K35E)/Fc [23]": {"molecular_target": "T6, IL-2(K35E)/Fc", "experiment": "SPR", "remark": "listed apart in the source"}, "[24]": {"molecular_target": "T10, H9(K35E)/Fc in which F92 was replaced …", "experiment": "SPR", "remark": "listed apart in the source"}, "[25]": {"molecular_target": "T11, human IL-2 receptor beta chain extracellular domain (ECD) (human, UniProt P14784 27-240)", "T11 construct": "human IL-2 receptor beta subunit (CD122), recombinant extracellular domain; Coated on immunotubes for panning and on plates for phage ELISA; also called hIL-2R beta subunit ECD; beta chain ECD; source: bought: R&D Systems", "T11 sequence (looked up)": "B1 chain", "experiment": "ELISA; polyvinyl chloride plates coated with human beta chain ECD; purified phage preparations of individual clones; bound phages detected with anti-M13-HRP; relative reactivity = signal on beta chain / signal on 9E10 (anti-c-myc)", "details": "both partners purified"}},
  "note": "Like-named read-outs stand apart in the source and are kept apart here.",
  "data": [
    {"binder": "B1", "values": [
      {"measurement": "koff", "setting": "[1]", "value": 0.000304, "unit": "s⁻¹"},
      {"measurement": "koff", "setting": "[2]", "value": 0.000349, "unit": "s⁻¹"},
      {"measurement": "koff", "setting": "[3]", "value": 0.000461, "unit": "s⁻¹"},
      {"measurement": "koff", "setting": "[4]", "value": 0.000273, "unit": "s⁻¹"},
      {"measurement": "koff", "setting": "H9(K35E)/Fc [5]", "value": 0.000395, "unit": "s⁻¹"},
      {"measurement": "koff", "setting": "IL-2(K35E)/Fc [6]", "value": 0.00326, "unit": "s⁻¹"},
      {"measurement": "koff", "setting": "[7]", "value": 0.000266, "unit": "s⁻¹"},
      {"measurement": "Kd", "setting": "[8]", "value": 0.37, "unit": "nM"},
      {"measurement": "Kd", "setting": "[9]", "value": 0.8, "unit": "nM"},
      {"measurement": "Kd", "setting": "[10]", "value": 0.54, "unit": "nM"},
      {"measurement": "Kd", "setting": "[11]", "value": 0.29, "unit": "nM"},
      {"measurement": "Kd", "setting": "H9(K35E)/Fc [12]", "value": 4.09, "unit": "nM"},
      {"measurement": "Kd", "setting": "IL-2(K35E)/Fc [13]", "value": 106, "unit": "nM"},
      {"measurement": "Kd", "setting": "[14]", "value": 1.12, "unit": "nM"},
      {"measurement": "koff", "setting": "[15]", "value": 0.000298, "unit": "s⁻¹"},
      {"measurement": "koff", "setting": "H9(K35E)/Fc [16]", "value": 0.000218, "unit": "s⁻¹"},
      {"measurement": "koff", "setting": "[17]", "value": 0.00113, "unit": "s⁻¹"},
      {"measurement": "koff", "setting": "IL-2(K35E)/Fc [18]", "value": 0.00308, "unit": "s⁻¹"},
      {"measurement": "koff", "setting": "[19]", "value": 0.000251, "unit": "s⁻¹"},
      {"measurement": "Kd", "setting": "[20]", "value": 3.35, "unit": "nM"},
      {"measurement": "Kd", "setting": "H9(K35E)/Fc [21]", "value": 4.47, "unit": "nM"},
      {"measurement": "Kd", "setting": "[22]", "value": 36.5, "unit": "nM"},
      {"measurement": "Kd", "setting": "IL-2(K35E)/Fc [23]", "value": 103, "unit": "nM"},
      {"measurement": "Kd", "setting": "[24]", "value": 3.84, "unit": "nM"}
    ]},
    {"binder": "B2", "values": [
      {"measurement": "binding result", "setting": "[25]", "value": "binds"}
    ]}
  ]
}
